Experimental data published in patent publication US20170081400A1 (CEPHALON, published 2017).
Substitutions are numbered along the chain they refer to.

T1: human TL1A extracellular domain with N-terminal HIS and FLAG tag (human) (UniProt O95150)
T1 sequence: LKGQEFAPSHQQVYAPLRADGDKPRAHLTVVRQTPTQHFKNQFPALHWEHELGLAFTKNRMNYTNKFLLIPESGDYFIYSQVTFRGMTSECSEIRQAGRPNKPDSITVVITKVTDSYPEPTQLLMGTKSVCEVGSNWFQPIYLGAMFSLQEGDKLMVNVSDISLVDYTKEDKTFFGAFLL

T2: human TL1A extracellular domain with N-terminal HIS and FLAG tag (human, UniProt O95150 72-251)
T2 construct: whole entry named. ~70 kDa fraction purified by gel filtration
T2 sequence: T1 sequence

B1: 320-263 (antibody, human IgG1, name in Kabat numbering, V domains shown)
VH: QVQLVQSGAEVKKPGASVKVSCKASGYTFTSYDINWVRQAPGQGLEWMGWLNPNSGNTGYAQKFQGRVTMTADRSTSTAYMELSSLRSEDTAVYYCAREVPETAAFEYWGQGTLVTVSS
VL: QSVLTQPPSVSGAPGQRVTISCTSSSSDIGKGLGVHWYQQLPGTAPKLLIEGYYNRPSGVPDRFSGSKSGTSASLTITGLLPEDEGDYYCQSYDGTLSALFGGGTKLTVLG
notes: human IgG1, lambda
B2: 320-302 (antibody, human IgG1, name in Kabat numbering, V domains shown)
VH: B1 VH
VL: B1 VL with K31A, H36A
notes: human IgG1, lambda
B3: 320-297 (antibody, human IgG1, name in Kabat numbering, V domains shown)
VH: B1 VH
VL: B1 VL with K31A, V35H
notes: human IgG1, lambda
B4: 320-280 (antibody, human IgG1, name in Kabat numbering, V domains shown)
VH: B1 VH
VL: B1 VL with K31A, L33H
notes: human IgG1, lambda
B5: 320-306 (antibody, human IgG1, name in Kabat numbering, V domains shown)
VH: B1 VH
VL: B1 VL with K31A, H36K
notes: human IgG1, lambda
B6: 320-305 (antibody, human IgG1, name in Kabat numbering, V domains shown)
VH: B1 VH
VL: B1 VL with K31A, H36D
notes: human IgG1, lambda
B7: 320-309 (antibody, human IgG1, name in Kabat numbering, V domains shown)
VH: B1 VH
VL: B1 VL with K31A, H36Y
notes: human IgG1, lambda
B8: 320-267 (antibody, human IgG1, V domains shown)
VH: B1 VH
VL: B1 VL with K31A, G32A
notes: human IgG1, lambda
B9: 320-278 (antibody, human IgG1, V domains shown)
VH: B1 VH
VL: B1 VL with K31A, L33Q
notes: human IgG1, lambda
B10: 320-310 (antibody, human IgG1, name in Kabat numbering, V domains shown)
VH: B1 VH
VL: B1 VL with K31A, Q91A
notes: human IgG1, lambda
B11: 320-277 (antibody, human IgG1, V domains shown)
VH: B1 VH
VL: B1 VL with K31A, L33S
notes: human IgG1, lambda
B12: 320-308 (antibody, human IgG1, name in Kabat numbering, V domains shown)
VH: B1 VH
VL: B1 VL with K31A, H36W
notes: human IgG1, lambda

Each binder was assayed against T1, human TL1A extracellular domain with N-terminal HIS and FLAG tag (human) (assay: cell-based or functional assay).
An Antibody IC50, TL1A induced caspase potency assay in TF-1 cells of 3 ng/mL and a Fold improvement over 320-179, TL1A induced caspase potency assay in TF-1 cells of 3 fold were found for B1 in this work. An Antibody IC50, TL1A induced caspase potency assay in TF-1 cells of 10 ng/mL and a Fold improvement over 320-179, TL1A induced caspase potency assay in TF-1 cells of 2 fold were found for B2 in this work. An Antibody IC50, TL1A induced caspase potency assay in TF-1 cells of 5 ng/mL and a Fold improvement over 320-179, TL1A induced caspase potency assay in TF-1 cells of 4 fold were found for B3 in this work. An Antibody IC50, TL1A induced caspase potency assay in TF-1 cells of 6 ng/mL and a Fold improvement over 320-179, TL1A induced caspase potency assay in TF-1 cells of 3 fold were found for B4 in this work.

What follows are binders tested against T2, human TL1A extracellular domain with … (assay: SPR run 3; supernatant on Protein A; TL1A 10 ug/mL; timepoint 59).
Excerpt: (§1) 1.5. Antibody expression and antigen binding as determined by SPR. Using a CM5 sensor chip (GE Healthcare) Protein A (Pierce) was coupled to the chip surface using an amine coupling kit (GE Healthcare). Protein A was coupled on flow cell 1 and 2 (or alternatively 3 and 4) using a BIACORE® T200. […] The amount of supernatant or purified protein (as well as the concentration) injected during the capture stage varied between runs and is specified in the header of the Tables 3-11. At the end of injection of the supernatant or purified antibody the change in response units was measured. This value was reported as Capture Level in Tables 3-11. […] The response units were measured prior to the end of the dissociation phase. […] The sensorgrams were double referenced (flow cell 2 is subtracted from flow cell 1 and a buffer blank). As there were a large number of antibody variants to screen, these were screened across different runs (Tables 3-11). […] A summary of the conditions used in each run is below:
(§2) 2.1. […] In some experiment the antibodies were purified using Protein A chromatography (See 1.4) and purified antibodies were used in BIACORE® (GE Healthcare) experiments.
For B1, the “TL1A Binding Level (Early)” value was 121 RU. For B5, the “TL1A Binding Level (Early)” value was 147 RU. For B6, the “TL1A Binding Level (Early)” value was 34 RU. B7 was tested, and the “TL1A Binding Level (Early)” value was 47 RU. With B8 the “TL1A Binding Level (Early)” value was 299 RU. B2 was tested, and the “TL1A Binding Level (Early)” value was 99 RU. In the case of B9, the “TL1A Binding Level (Early)” value is reported as 389 RU. B10 was tested, and the “TL1A Binding Level (Early)” value was 70 RU. B3 was tested, and the “TL1A Binding Level (Early)” value was 95 RU. For B4, the “TL1A Binding Level (Early)” value was 228 RU. In the case of B11, the “TL1A Binding Level (Early)” value is reported as 387 RU. In the case of B12, the “TL1A Binding Level (Early)” value is reported as 106 RU.

These binders were tested against T2, human TL1A extracellular domain with … (assay: SPR run 3; supernatant on Protein A; TL1A 10 ug/mL; timepoint 590).
Excerpt: as §1, §2
In the case of B1, the “TL1A Binding Level (Late)” value is reported as 123 RU. With B5 the “TL1A Binding Level (Late)” value was 133 RU. With B6 the “TL1A Binding Level (Late)” value was 10 RU. B7 was tested, and the “TL1A Binding Level (Late)” value was 40 RU. B8 was tested, and the “TL1A Binding Level (Late)” value was 297 RU. With B2 the “TL1A Binding Level (Late)” value was 74 RU. B9 was tested, and the “TL1A Binding Level (Late)” value was 374 RU. With B10 the “TL1A Binding Level (Late)” value was 62 RU. With B3 the “TL1A Binding Level (Late)” value was 77 RU. With B4 the “TL1A Binding Level (Late)” value was 211 RU. B11 was tested, and the “TL1A Binding Level (Late)” value was 361 RU. B12 was tested, and the “TL1A Binding Level (Late)” value was 73 RU.
